According to article PMC8680157:
pKd: −log10 of the molar value.

Experiments:
[1] = target: fluorescently labelled nucleosome core particle (NCP), non-ubiquitylated (human) (UniProt P68431); assay: fluorescence polarisation
[2] = target: fluorescently labelled nucleosome core particle ubiquitylated at H2A K13 and K15 (human) (UniProt P68431); assay: fluorescence polarisation

Sequence of GST-tagged BARD1 (ARD–BRCT), residues 415–777, wild type (Q99728 415-777): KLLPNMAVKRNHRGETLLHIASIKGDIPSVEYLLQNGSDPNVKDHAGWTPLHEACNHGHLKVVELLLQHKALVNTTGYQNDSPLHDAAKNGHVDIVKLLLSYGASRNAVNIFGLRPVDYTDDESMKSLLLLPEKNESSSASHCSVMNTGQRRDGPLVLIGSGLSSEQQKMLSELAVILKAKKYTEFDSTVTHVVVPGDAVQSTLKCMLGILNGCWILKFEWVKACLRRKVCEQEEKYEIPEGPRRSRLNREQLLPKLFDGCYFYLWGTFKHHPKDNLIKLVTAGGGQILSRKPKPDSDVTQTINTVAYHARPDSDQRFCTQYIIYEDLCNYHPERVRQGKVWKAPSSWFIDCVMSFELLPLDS

| Substance | pKd [1] | pKd [2] |
| --- | --- | --- |
| BRCA1^R–BARD1^Long, BRCA1 (residues 1–100)–BARD1 (residues 26–777) (from UniProt P38398 1-100; Q99728 26-777) (enzyme) | 7.22 | 7.70 |
| BRCA1^R–BARD1^R, fusion of BRCA1 (residues 1–100) and BARD1 (residues 26–122) (from UniProt P38398 1-100; Q99728 26-122) (enzyme) | 5.10 | – |
| GST-tagged BARD1 (ARD–BRCT), residues 415–777, wild type (from UniProt Q99728 415-777) (domain or fragment) | – | 6.70 |
